According to a protein production outcome set (Wang et al. 2014):

Assay: label from the status in PepcDB records
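Further: failed if final PepcDB status was selected cloned or expressed and not failed if soluble or beyond.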

With “MALEIKILDYGDIELESSFLVLGRDCGRTRRVLTLGFLILGGKYPVVVDTGYRSNQIMETLGMRGLQYHEHMIENQLARHGVRMGDVRFVCHTHLHIDHAGKDDLFPMNTTVVLNRKELEYSVSGLMHPQYPAPDIKHLIDRLHTKSALRFLDLEITGPIELMPGVYCDAANAHTEGSMNIIVETADGIATICGDVIYDFNDQIVTPFNEIHDWEPRTTGNHGTSKRAEKASIKKLLSNSRYLLPVHDRPAKIEGGMVVGRLHDQVPGPIVQSLPPRNWFPA” the protein production was “failed”.

For “AIAAEAVLRVARRQLSQRGGSGAPILLRQMFEPVSCTFTYLLGDRESREAVLIDPVLETAPRDAQLIKELGLRLLYAVNTHCHADHITGSGLLRSLLPGCQSVISRLSGAQADLHIEDGDSIRFGRFALETRASPGHTPGCVTFVLNDHSMAFTGDALLIRGCGRTDFQQGCAKTLYHSVHEKIFTLPGDCLIYPAHDYHGFTVSTVEEERTLNPRLTLSCEEFVKIMGNLNLPKPQQIDFAVPANMRCGVQTPTA”, the protein production was “failed”.

With “LRLSCFIDQPTGLFNRSRLQEDIHEALASSVDYQLVVVDMITSAFLNDIVKALGYDFSQDLVTAIKERIESLLPRTCSLYKVGPTRFGFLLPGDRPPEHLFRTILEDFETPVECRGIPVQMQVGLGVVTLNRDPNEEQDWMRMVISAADDARDRDLGWA” the protein production was “failed”.

For “MFIGGAIISFLFLFGYMWKEAHSNRIRHVTLSFPHFPDNGPPLTIFFISDIHRRSVSCRMLETVKGKADLVVIGGDLAEKGVPAARVRENVRRLQTVAPVYFVWGNNDDEVDYDLQSLLEEERVYVLKNKAEVWEHGGVPIALIGVGDVSRKEADIARALEHVPPESFRILACHNPAIIARLEDEQHISLVLSGHTHGGQIRLFSFGLYEKGGLKWHGNTALFTSNGYGTTGVPLRLGAPAETHLIKIVPGKLATEKLEHHHHHH”, the protein production was “not failed”.

In the case of “MENLASPPDISFVIAAYNAADTIEAAVQSALDQRGVTLEVIVVDDRSADDTITFVEAIAAIDPRVRLLALEENRGPGGARNAGIEAATGRWIAVLDSDDVIRPERSACMMCRAEAANAAVAVDNLDVVYTDGRPMETMFPEEFLEERAVLTLEDFISSNILFRSTFNFGYMKPMFRRDFLNNEGLRFREDIRIGEDYILLASALAAGGLCVIEPKPGYIYNIREGSISRVLELHHVEAMMRADQEFLSHYTLLPAAMDAQQARARSLQLAHNFLTLVENIKRRSVLGALKTTIRDPAVLGHLRMPIAVRLRRLRDAMFAPAAKIQGLEHHHHHH”, the protein production is reported as “not failed”.

In the case of “MKKYSTIPTPCYVLESERLEKNAKILEIVRQQSGAKVLLALKGYAFWREFGILRQKLNGCCASGLYEAKLAFEEFGGRESHKEICVYSPAFKEAEMSAILPLATSIIFNSFYQYATYKDRILDKNKQLENLGLSPIKMGLRINPLYSEVTPAIYNPCSKVSRLGITPSGFEKGVKEHGLEGVSGLHFHTHCEQNADALCRTLEHVEKHFRPYLENMAWVNFGGGHHITKSDYDVNLLIQTIKDFKERYHNIEVILEPGEAIGWQCGFLIASVIDIVQNDQEIAILDASFSAHMPDCLEMPYRPSIFKVSVENDEELIEVEKGENQGAFSYFLGGPTCLAGDFMGSFSFETPLKRGDKIVFQDMLHYTIVKNNSFNGVPLPSLARLDQQGFKILKNFSYEDYKNRN”, the protein production is reported as “failed”.

In the case of “MKVFEFEVGKGFLLRLDYGKDLVRQIEEFLEEKGIHAAHISAIGAVRSAVIGYYDQEKKEYVKKELMEPLEILSLSGNVSMKDSKPFCHIHVLLGKDGEVYGGHLFSAEVFACEVFVLPLSGEAPERAFDEQTGLFLWLEHHHHHH”, the protein production is reported as “not failed”.

With “MNCIPQYYKNRVCLNVLAGSIKNAKEVYDACDGHVLIGVLSKNYSTVEAAIEDMKKYSKEIDNAISVGLGAGDPNQSNMVSQISKELQPQHINQVFTGVATSRALLGQNYSIINGLVSPTGKPGFVKISTGPLSSKEKDGIVPIETAIAMMKDMGGSSIKFFPMGGLKTKDEYIEVAKACAKHNFYLEPTGGIDLDNFKEIVQIALDAGVEKVIPHVYTSIIDKETGETKVEDIGVLYKIMKELLG” the protein production was “not failed”.

In the case of “MVKCMKPGKAVILLQGRYTGKKAVIVKSFDDGTVEKKYGHCLVAGLKKYPSKVIRKDSAKKTAKKSRVKCFFKVINYQHVMPTRYTLDLDLKNVVSADAISSKDKKVTALKEAKAKFEERFKTGKNRWFFTKLRF”, the protein production is reported as “failed”.

In the case of “MKKPVLETWLERGLFASRWLMAPFYVGLVVALAALMVVFFQELFQELPRVPSMTPESAILMALTLIDLSLAANLMVIVILSGYENFVSKIDTASHEDRPEWMGTVDFSGLKMKLIASIVAISAIALLKAFLKLTEPGQTVDQVRLFWLVMVHLSFVVSGVLLAVMDWLNAKVAKS”, the protein production is reported as “failed”.
